# In US20160053277A1, “Compositions Having Dicamba Decarboxylase Activity and Methods of Use” (PIONEER HI-BRED INTERNATIONAL, INC., priority 2013, published 2016):
# B1: R212Q: point mutant of SEQ ID NO: 109 (protein)
# chain: MAQGKVALEEHFAIPETLQDSAGFVPGDYWKELQHRLLDIQDTRLKLMDAHGIETMILSLNAPAVQAIPDRRKAIEIARRANDVLAEECAKRPDRFLAFAALPLQDPDAATEELQRCVNDLGFVGALVNGFSQEGDGQTPLYYDLPQYRPFWGEVEKLDVPFYLHPRNPLPQDSRIYDGHPWLLGPTWAFAQETAVHALRLMASGLFDEHPQLNIILGHMGEGLPYMMWRIDHRVAWVKLPPRYPAKRRFMDYFNENFHITTSGNFRTQTLIDAILEIGADRILFSTDWPFENIDHASDWFNATSIAEADRVKIGRTNARRLFKLDGA
# modifications: Dicamba decarboxylase variant clone: DC.4.032
# B2: L240A: point mutant of SEQ ID NO: 109 (protein)
# chain: MAQGKVALEEHFAIPETLQDSAGFVPGDYWKELQHRLLDIQDTRLKLMDAHGIETMILSLNAPAVQAIPDRRKAIEIARRANDVLAEECAKRPDRFLAFAALPLQDPDAATEELQRCVNDLGFVGALVNGFSQEGDGQTPLYYDLPQYRPFWGEVEKLDVPFYLHPRNPLPQDSRIYDGHPWLLGPTWAFAQETAVHALRLMASGLFDEHPRLNIILGHMGEGLPYMMWRIDHRVAWVKAPPRYPAKRRFMDYFNENFHITTSGNFRTQTLIDAILEIGADRILFSTDWPFENIDHASDWFNATSIAEADRVKIGRTNARRLFKLDGA
# modifications: Dicamba decarboxylase variant clone: DC.4.032
# B3: N214Q: point mutant of SEQ ID NO: 109 (protein)
# chain: MAQGKVALEEHFAIPETLQDSAGFVPGDYWKELQHRLLDIQDTRLKLMDAHGIETMILSLNAPAVQAIPDRRKAIEIARRANDVLAEECAKRPDRFLAFAALPLQDPDAATEELQRCVNDLGFVGALVNGFSQEGDGQTPLYYDLPQYRPFWGEVEKLDVPFYLHPRNPLPQDSRIYDGHPWLLGPTWAFAQETAVHALRLMASGLFDEHPRLQIILGHMGEGLPYMMWRIDHRVAWVKLPPRYPAKRRFMDYFNENFHITTSGNFRTQTLIDAILEIGADRILFSTDWPFENIDHASDWFNATSIAEADRVKIGRTNARRLFKLDGA
# modifications: Dicamba decarboxylase variant clone: DC.4.032
# B4: E16A: point mutant of SEQ ID NO: 109 (protein)
# chain: MAQGKVALEEHFAIPATLQDSAGFVPGDYWKELQHRLLDIQDTRLKLMDAHGIETMILSLNAPAVQAIPDRRKAIEIARRANDVLAEECAKRPDRFLAFAALPLQDPDAATEELQRCVNDLGFVGALVNGFSQEGDGQTPLYYDLPQYRPFWGEVEKLDVPFYLHPRNPLPQDSRIYDGHPWLLGPTWAFAQETAVHALRLMASGLFDEHPRLNIILGHMGEGLPYMMWRIDHRVAWVKLPPRYPAKRRFMDYFNENFHITTSGNFRTQTLIDAILEIGADRILFSTDWPFENIDHASDWFNATSIAEADRVKIGRTNARRLFKLDGA
# modifications: Dicamba decarboxylase variant clone: DC.4.032
# B5: V235I: point mutant of SEQ ID NO: 109 (protein)
# chain: MAQGKVALEEHFAIPETLQDSAGFVPGDYWKELQHRLLDIQDTRLKLMDAHGIETMILSLNAPAVQAIPDRRKAIEIARRANDVLAEECAKRPDRFLAFAALPLQDPDAATEELQRCVNDLGFVGALVNGFSQEGDGQTPLYYDLPQYRPFWGEVEKLDVPFYLHPRNPLPQDSRIYDGHPWLLGPTWAFAQETAVHALRLMASGLFDEHPRLNIILGHMGEGLPYMMWRIDHRIAWVKLPPRYPAKRRFMDYFNENFHITTSGNFRTQTLIDAILEIGADRILFSTDWPFENIDHASDWFNATSIAEADRVKIGRTNARRLFKLDGA
# modifications: Dicamba decarboxylase variant clone: DC.4.032
# B6: L240D: point mutant of SEQ ID NO: 109 (protein)
# chain: MAQGKVALEEHFAIPETLQDSAGFVPGDYWKELQHRLLDIQDTRLKLMDAHGIETMILSLNAPAVQAIPDRRKAIEIARRANDVLAEECAKRPDRFLAFAALPLQDPDAATEELQRCVNDLGFVGALVNGFSQEGDGQTPLYYDLPQYRPFWGEVEKLDVPFYLHPRNPLPQDSRIYDGHPWLLGPTWAFAQETAVHALRLMASGLFDEHPRLNIILGHMGEGLPYMMWRIDHRVAWVKDPPRYPAKRRFMDYFNENFHITTSGNFRTQTLIDAILEIGADRILFSTDWPFENIDHASDWFNATSIAEADRVKIGRTNARRLFKLDGA
# modifications: Dicamba decarboxylase variant clone: DC.4.032
# B7: R243A: point mutant of SEQ ID NO: 109 (protein)
# chain: MAQGKVALEEHFAIPETLQDSAGFVPGDYWKELQHRLLDIQDTRLKLMDAHGIETMILSLNAPAVQAIPDRRKAIEIARRANDVLAEECAKRPDRFLAFAALPLQDPDAATEELQRCVNDLGFVGALVNGFSQEGDGQTPLYYDLPQYRPFWGEVEKLDVPFYLHPRNPLPQDSRIYDGHPWLLGPTWAFAQETAVHALRLMASGLFDEHPRLNIILGHMGEGLPYMMWRIDHRVAWVKLPPAYPAKRRFMDYFNENFHITTSGNFRTQTLIDAILEIGADRILFSTDWPFENIDHASDWFNATSIAEADRVKIGRTNARRLFKLDGA
# modifications: Dicamba decarboxylase variant clone: DC.4.032
# B8: W229Y: point mutant of SEQ ID NO: 109 (protein)
# chain: MAQGKVALEEHFAIPETLQDSAGFVPGDYWKELQHRLLDIQDTRLKLMDAHGIETMILSLNAPAVQAIPDRRKAIEIARRANDVLAEECAKRPDRFLAFAALPLQDPDAATEELQRCVNDLGFVGALVNGFSQEGDGQTPLYYDLPQYRPFWGEVEKLDVPFYLHPRNPLPQDSRIYDGHPWLLGPTWAFAQETAVHALRLMASGLFDEHPRLNIILGHMGEGLPYMMYRIDHRVAWVKLPPRYPAKRRFMDYFNENFHITTSGNFRTQTLIDAILEIGADRILFSTDWPFENIDHASDWFNATSIAEADRVKIGRTNARRLFKLDGA
# modifications: Dicamba decarboxylase variant clone: DC.4.032
# B9: S298A: point mutant of SEQ ID NO: 109 (protein)
# chain: MAQGKVALEEHFAIPETLQDSAGFVPGDYWKELQHRLLDIQDTRLKLMDAHGIETMILSLNAPAVQAIPDRRKAIEIARRANDVLAEECAKRPDRFLAFAALPLQDPDAATEELQRCVNDLGFVGALVNGFSQEGDGQTPLYYDLPQYRPFWGEVEKLDVPFYLHPRNPLPQDSRIYDGHPWLLGPTWAFAQETAVHALRLMASGLFDEHPRLNIILGHMGEGLPYMMWRIDHRVAWVKLPPRYPAKRRFMDYFNENFHITTSGNFRTQTLIDAILEIGADRILFSTDWPFENIDHAADWFNATSIAEADRVKIGRTNARRLFKLDGA
# modifications: Dicamba decarboxylase variant clone: DC.4.032
# B10: K239H: point mutant of SEQ ID NO: 109 (protein)
# chain: MAQGKVALEEHFAIPETLQDSAGFVPGDYWKELQHRLLDIQDTRLKLMDAHGIETMILSLNAPAVQAIPDRRKAIEIARRANDVLAEECAKRPDRFLAFAALPLQDPDAATEELQRCVNDLGFVGALVNGFSQEGDGQTPLYYDLPQYRPFWGEVEKLDVPFYLHPRNPLPQDSRIYDGHPWLLGPTWAFAQETAVHALRLMASGLFDEHPRLNIILGHMGEGLPYMMWRIDHRVAWVHLPPRYPAKRRFMDYFNENFHITTSGNFRTQTLIDAILEIGADRILFSTDWPFENIDHASDWFNATSIAEADRVKIGRTNARRLFKLDGA
# modifications: Dicamba decarboxylase variant clone: DC.4.032
# B11: L240E: point mutant of SEQ ID NO: 109 (protein)
# chain: MAQGKVALEEHFAIPETLQDSAGFVPGDYWKELQHRLLDIQDTRLKLMDAHGIETMILSLNAPAVQAIPDRRKAIEIARRANDVLAEECAKRPDRFLAFAALPLQDPDAATEELQRCVNDLGFVGALVNGFSQEGDGQTPLYYDLPQYRPFWGEVEKLDVPFYLHPRNPLPQDSRIYDGHPWLLGPTWAFAQETAVHALRLMASGLFDEHPRLNIILGHMGEGLPYMMWRIDHRVAWVKEPPRYPAKRRFMDYFNENFHITTSGNFRTQTLIDAILEIGADRILFSTDWPFENIDHASDWFNATSIAEADRVKIGRTNARRLFKLDGA
# modifications: Dicamba decarboxylase variant clone: DC.4.032
# B12: S298T: point mutant of SEQ ID NO: 109 (protein)
# chain: MAQGKVALEEHFAIPETLQDSAGFVPGDYWKELQHRLLDIQDTRLKLMDAHGIETMILSLNAPAVQAIPDRRKAIEIARRANDVLAEECAKRPDRFLAFAALPLQDPDAATEELQRCVNDLGFVGALVNGFSQEGDGQTPLYYDLPQYRPFWGEVEKLDVPFYLHPRNPLPQDSRIYDGHPWLLGPTWAFAQETAVHALRLMASGLFDEHPRLNIILGHMGEGLPYMMWRIDHRVAWVKLPPRYPAKRRFMDYFNENFHITTSGNFRTQTLIDAILEIGADRILFSTDWPFENIDHATDWFNATSIAEADRVKIGRTNARRLFKLDGA
# modifications: Dicamba decarboxylase variant clone: DC.4.032
# Assay: Saturation mutagenesis of SEQ ID NO:109: dicamba decarboxylation activity of point mutants (carbon dioxide released)
# [1] = dicamba decarboxylation activity of point mutants of SEQ ID NO: 109, relative to unchanged template
# [2] = point mutation in SEQ ID NO: 109
Molecule,Average Activity (Fold of SEQ ID NO: 109) [1],Average Activity (Fold of SEQ ID NO: 109) [2]
B1,1.7 Fold of SEQ ID NO: 109,1.7 Fold of SEQ ID NO: 109
B2,2.3 Fold of SEQ ID NO: 109,–
B3,1.8 Fold of SEQ ID NO: 109,1.8 Fold of SEQ ID NO: 109
B4,1.8 Fold of SEQ ID NO: 109,–
B5,1.8 Fold of SEQ ID NO: 109,1.8 Fold of SEQ ID NO: 109
B6,2.2 Fold of SEQ ID NO: 109,–
B7,1.8 Fold of SEQ ID NO: 109,1.8 Fold of SEQ ID NO: 109
B8,1.7 Fold of SEQ ID NO: 109,1.7 Fold of SEQ ID NO: 109
B9,2.1 Fold of SEQ ID NO: 109,2.1 Fold of SEQ ID NO: 109
B10,1.8 Fold of SEQ ID NO: 109,1.8 Fold of SEQ ID NO: 109
B11,2.1 Fold of SEQ ID NO: 109,2.1 Fold of SEQ ID NO: 109
B12,2.3 Fold of SEQ ID NO: 109,–
